Laboratory results from PMC2516325.

Biological target: recombinant CquiOBP1, odorant-binding protein from Culex pipiens quinquefasciatus (Culex pipiens quinquefasciatus)
Assay: SEC; gel filtration of purified recombinant CquiOBP1 on Superdex-75 26/60, 150 mM NaCl, 20 mM Tris-HCl pH 8; monomer and dimer peaks isolated; the dimer slowly dissociates into monomer (1 hour at room temperature, overnight at 4°C)

stoichiometry N: 2
Substance: recombinant CquiOBP1, odorant-binding protein from Culex pipiens quinquefasciatus (natural protein)
